Results from publication PMC12499500.

Molecular target: drosophila GABAB2 subunit, EM construct (residues 24–790) (Drosophila melanogaster) (UniProt Q9BML6)
Sequence (Q9BML6 entry or part of it): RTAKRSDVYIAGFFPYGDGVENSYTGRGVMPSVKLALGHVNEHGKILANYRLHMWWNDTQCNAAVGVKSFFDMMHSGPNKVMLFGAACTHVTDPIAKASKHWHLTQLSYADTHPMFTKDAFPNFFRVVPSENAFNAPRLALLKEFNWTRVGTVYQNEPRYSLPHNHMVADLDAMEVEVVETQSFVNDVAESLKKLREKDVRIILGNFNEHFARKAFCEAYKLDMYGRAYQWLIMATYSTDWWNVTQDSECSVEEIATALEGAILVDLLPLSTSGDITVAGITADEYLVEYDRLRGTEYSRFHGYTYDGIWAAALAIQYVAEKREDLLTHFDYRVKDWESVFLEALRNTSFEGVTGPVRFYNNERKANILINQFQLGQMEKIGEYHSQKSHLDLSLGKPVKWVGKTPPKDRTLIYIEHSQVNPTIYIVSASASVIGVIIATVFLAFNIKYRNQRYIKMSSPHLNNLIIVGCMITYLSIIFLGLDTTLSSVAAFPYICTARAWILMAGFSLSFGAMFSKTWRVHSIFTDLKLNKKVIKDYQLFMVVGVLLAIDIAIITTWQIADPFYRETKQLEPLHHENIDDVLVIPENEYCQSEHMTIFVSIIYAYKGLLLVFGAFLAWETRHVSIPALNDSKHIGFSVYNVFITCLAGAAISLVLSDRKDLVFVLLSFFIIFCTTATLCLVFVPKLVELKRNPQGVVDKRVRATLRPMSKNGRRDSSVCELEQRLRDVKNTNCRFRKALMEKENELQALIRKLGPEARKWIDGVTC

Row | Substance | basal IP1 accumulation (constitutive activity), HEK293 cells co-transfected with the dGB1 mutant and wild-type dGB2, against the wild-type receptor (% increase in IP1 accumulation) | basal IP1 accumulation (constitutive activity), HEK293 cells co-transfected with the dGB1 mutant and wild-type dGB2, against dGB1^III (% increase in IP1 accumulation)
1 | dGB1^I (V658L) (from UniProt Q9BML7 1-840) (receptor) | 50 | 
2 | dGB1^I-II (V658L, F659L) (from UniProt Q9BML7 1-840) (receptor) |  | 17
3 | dGB1^I-II-III (V658L, F659L, E666A, H566A) (from UniProt Q9BML7 1-840) (receptor) |  | 22
4 | dGB1^II (F659L) (from UniProt Q9BML7 1-840) (receptor) | 66 | 
5 | dGB1^III (E666A and H566A) (from UniProt Q9BML7 1-840) (receptor) | 59 | 
